Laboratory results as given in patent US4413056A, “Process for the preparation of penicillins and penicillin derivatives” (Beecham Group Limited, priority 1980, dated 1983).

B1: Alcalase 1.5 M: Subtilisin A from B licheniformis, supplier Novo (protein, UniProt P00780 106-379, looked up)
Subtilisin Carlsberg: AQTVPYGIPLIKADKVQAQGFKGANVKVAVLDTGIQASHPDLNVVGGASFVAGEAYNTDGNGHGTHVAGTVAALDNTTGVLGVAPSVSLYAVKVLNSSGSGSYSGIVSGIEWATTNGMDVINMSLGGASGSTAMKQAVDNAYAKGVVVVAAAGNSGSSGNTNTIGYPAKYDSVIAVGAVDSNSNRASFSSVGAELEVMAPGAGVYSTYPTNTYATLNGTSMASPHVAGAAALILSKHPNLSASQVRNRLSSTATYLGSSFYYGKGLINVEAAAQ
B2: Alcalase 0.6 L: Subtilisin A from B licheniformis, supplier Novo (protein, UniProt P00780 106-379, looked up)
Subtilisin Carlsberg: AQTVPYGIPLIKADKVQAQGFKGANVKVAVLDTGIQASHPDLNVVGGASFVAGEAYNTDGNGHGTHVAGTVAALDNTTGVLGVAPSVSLYAVKVLNSSGSGSYSGIVSGIEWATTNGMDVINMSLGGASGSTAMKQAVDNAYAKGVVVVAAAGNSGSSGNTNTIGYPAKYDSVIAVGAVDSNSNRASFSSVGAELEVMAPGAGVYSTYPTNTYATLNGTSMASPHVAGAAALILSKHPNLSASQVRNRLSSTATYLGSSFYYGKGLINVEAAAQ
B3: Protease type VII: Protease type VII B amyloliquefaciens, Nagarase; Subtilisin BPN, supplier Sigma (protein, UniProt P00782 108-382, looked up)
Subtilisin BPN': AQSVPYGVSQIKAPALHSQGYTGSNVKVAVIDSGIDSSHPDLKVAGGASMVPSETNPFQDNNSHGTHVAGTVAALNNSIGVLGVAPSASLYAVKVLGADGSGQYSWIINGIEWAIANNMDVINMSLGGPSGSAALKAAVDKAVASGVVVVAAAGNEGTSGSSSTVGYPGKYPSVIAVGAVDSSNQRASFSSVGPELDVMAPGVSIQSTLPGNKYGAYNGTSMASPHVAGAAALILSKHPNWTNTQVRSSLENTTTKLGDSFYYGKGLINVQAAAQ
B4: Protease type VIII: Protease type VIII B subtilis, Subtilisin Carlsberg; Subtilopeptidase A, supplier Sigma (protein, UniProt P00780 106-379, looked up)
Subtilisin Carlsberg: AQTVPYGIPLIKADKVQAQGFKGANVKVAVLDTGIQASHPDLNVVGGASFVAGEAYNTDGNGHGTHVAGTVAALDNTTGVLGVAPSVSLYAVKVLNSSGSGSYSGIVSGIEWATTNGMDVINMSLGGASGSTAMKQAVDNAYAKGVVVVAAAGNSGSSGNTNTIGYPAKYDSVIAVGAVDSNSNRASFSSVGAELEVMAPGAGVYSTYPTNTYATLNGTSMASPHVAGAAALILSKHPNLSASQVRNRLSSTATYLGSSFYYGKGLINVEAAAQ
B5: Protease type XI: Protease type XI Tritirachium album Proteinase K, supplier Sigma (protein, UniProt P06873 106-384, looked up)
Proteinase K: AAQTNAPWGLARISSTSPGTSTYYYDESAGQGSCVYVIDTGIEASHPEFEGRAQMVKTYYYSSRDGNGHGTHCAGTVGSRTYGVAKKTQLFGVKVLDDNGSGQYSTIIAGMDFVASDKNNRNCPKGVVASLSLGGGYSSSVNSAAARLQSSGVMVAVAAGNNNADARNYSPASEPSVCTVGASDRYDRRSSFSNYGSVLDIFGPGTSILSTWIGGSTRSISGTSMATPHVAGLAAYLMTLGKTTAASACRYIADTANKGDLSNIPFGTVNLLAYNNYQA
B6: Protease Bacterial: Protease Bacterial (Subtilisin A) B Sublitisin, supplier CP (protein, UniProt P00780 106-379, looked up)
Subtilisin Carlsberg: AQTVPYGIPLIKADKVQAQGFKGANVKVAVLDTGIQASHPDLNVVGGASFVAGEAYNTDGNGHGTHVAGTVAALDNTTGVLGVAPSVSLYAVKVLNSSGSGSYSGIVSGIEWATTNGMDVINMSLGGASGSTAMKQAVDNAYAKGVVVVAAAGNSGSSGNTNTIGYPAKYDSVIAVGAVDSNSNRASFSSVGAELEVMAPGAGVYSTYPTNTYATLNGTSMASPHVAGAAALILSKHPNLSASQVRNRLSSTATYLGSSFYYGKGLINVEAAAQ
B7: Proteinase D: Proteinase D (Subtilisin A) B licheniformis, supplier ABM (protein, UniProt P00780 106-379, looked up)
Subtilisin Carlsberg: AQTVPYGIPLIKADKVQAQGFKGANVKVAVLDTGIQASHPDLNVVGGASFVAGEAYNTDGNGHGTHVAGTVAALDNTTGVLGVAPSVSLYAVKVLNSSGSGSYSGIVSGIEWATTNGMDVINMSLGGASGSTAMKQAVDNAYAKGVVVVAAAGNSGSSGNTNTIGYPAKYDSVIAVGAVDSNSNRASFSSVGAELEVMAPGAGVYSTYPTNTYATLNGTSMASPHVAGAAALILSKHPNLSASQVRNRLSSTATYLGSSFYYGKGLINVEAAAQ
B8: Subtilisin A: Subtilisin A, B licheniformis, supplier Novo; alkaline microbial serine proteinase EC 3.4.21.14 (protein, UniProt P00780 106-379, looked up)
Subtilisin Carlsberg: AQTVPYGIPLIKADKVQAQGFKGANVKVAVLDTGIQASHPDLNVVGGASFVAGEAYNTDGNGHGTHVAGTVAALDNTTGVLGVAPSVSLYAVKVLNSSGSGSYSGIVSGIEWATTNGMDVINMSLGGASGSTAMKQAVDNAYAKGVVVVAAAGNSGSSGNTNTIGYPAKYDSVIAVGAVDSNSNRASFSSVGAELEVMAPGAGVYSTYPTNTYATLNGTSMASPHVAGAAALILSKHPNLSASQVRNRLSSTATYLGSSFYYGKGLINVEAAAQ

Assay: De-esterification of the penicillin C3 benzyl ester by a number of enzymes, ester disappearance assayed by HPLC
Assay type: biochemical
Conditions: enzyme solution 0.2 ml (5 mg/ml) plus ester solution 2 ml, phosphate buffer pH 7.8, 37° C., 16 hours
Procedure: In order to determine the amount of hydrolysis of the benzyl ester of the C3 carboxyl group by a number of enzymes, the ester was subjected, in aqueous reaction mixture, to the action of the particular enzyme using the following procedure and assay procedure.
Ester solution--Ester (50 mg) was added slowly to stirred 0.25 M, pH 7.8 phosphate buffer (1 ml). When the ester was dissolved distilled water (9 ml) was added.
Enzyme solution--Enzyme (5 mg) was dissolved in distilled water (1 ml).
Enzymation--Enzyme solution (0.2 ml) was added to ester solution (2 ml) and the mixture was incubated at 37° C. for 16 hours.
Assay--When the incubation was complete, the reaction mixture was filtered through glass fibre (Whatman GF/A) and assayed for disappearance of the ester by HPLC.
Extent of conversion of ester to acid is determined as follows: [formula]
In table 1 the extent of conversion of ester to acid is shown for a number of samples of the enzyme of the present invention.
For B1, the “Conversion (percentage conversion of the ester to 6[2(2-carboxy)-2-thien-3ylacetamid 6methoxy] penicillin)” value was 88.6%. For B2, the “Conversion (percentage conversion of the ester to 6[2(2-carboxy)-2-thien-3ylacetamid 6methoxy] penicillin)” value was 88.0%. In the case of B3, the “Conversion (percentage conversion of the ester to 6[2(2-carboxy)-2-thien-3ylacetamid 6methoxy] penicillin)” value is reported as 78.0%. For B4, the “Conversion (percentage conversion of the ester to 6[2(2-carboxy)-2-thien-3ylacetamid 6methoxy] penicillin)” value was 89.0%. With B5 the “Conversion (percentage conversion of the ester to 6[2(2-carboxy)-2-thien-3ylacetamid 6methoxy] penicillin)” value was 61.0%. In the case of B6, the “Conversion (percentage conversion of the ester to 6[2(2-carboxy)-2-thien-3ylacetamid 6methoxy] penicillin)” value is reported as 91.7%. For B7, the “Conversion (percentage conversion of the ester to 6[2(2-carboxy)-2-thien-3ylacetamid 6methoxy] penicillin)” value was 100.0%. For B8, the “Conversion (percentage conversion of the ester to 6[2(2-carboxy)-2-thien-3ylacetamid 6methoxy] penicillin)” value was 88.8%.

Assay: De-esterification of the benzyl ester using subtilisin A at controlled pH, ester and acid assayed by HPLC
Assay type: biochemical
Conditions: after 4 hours reaction, 37° C., pH 7.5, subtilisin A 28.16 mg
Procedure: Benzyl 6β-[2-(2-carboxy)-2-thien-3'-ylacetamido 6α-methoxy]penicillanate (0.825 g) was dissolved by adding slowly to stirred 0.25 M, pH 7.8 phosphate buffer (8 ml).
Subtilisin A (28.16 mg) was dissolved in distilled water (10 ml).
Ester solution (3 ml) was added to distilled water (7 ml) and heated to 37° C. in a stirred, water jacketed glass vessel (60 ml) and the pH adjusted to 7.5 by the addition of 1 M NaOH. Subtilisin A solution (10 ml) was heated to 37° C. and added to the ester. The mixture was stirred, the temperature maintained at 37° C. and the pH maintained at 7.5 by the addition of 0.1 M sodium hydroxide.
Samples were removed at appropriate intervals and assayed for ester and acid using the two HPLC systems described in Example 1.
In the case of B8, the “conversion of ester to acid” value is reported as 88%.
